# Results from patent EP1141005B1.
# Legend:
# Test in all cases: cell-based or functional assay
# GAL4/HIF 71-826 (human) = target: GAL4/HIF 71-826 (human)
# [1] = target: GFP-HIF-1α (in-frame fusion of green fluorescent protein with full-length HIF-1α) (Aequeora victoria; human) [GFP: P42212]
# GAL4/HIF 526-826 (human) = target: GAL4/HIF 526-826 (human)
# GAL4/HIF 1-813 (human) = target: GAL4/HIF 1-813 (human)
# [2] = target: HIF-1α (wild-type human HIF-1α expressed from pCMV4/HIF-1α) (human) (UniProt Q16665)
# GAL4/HIF 531-584 (human) = target: GAL4/HIF 531-584 (human)
# GAL4/HIF 776-826 (human) = target: GAL4/HIF 776-826 (human)
# GAL4/Arnt 128-774 = GAL4/Arnt 128-774 (UniProt P04386)
# GAL4/Arnt 128-603 = GAL4/Arnt 128-603 (UniProt P04386)
# HIF-1α (wild-type human HIF-1α expressed from pCMV4/HIF-1α) (human), sequence (Q16665 whole entry, the tested form may be a part): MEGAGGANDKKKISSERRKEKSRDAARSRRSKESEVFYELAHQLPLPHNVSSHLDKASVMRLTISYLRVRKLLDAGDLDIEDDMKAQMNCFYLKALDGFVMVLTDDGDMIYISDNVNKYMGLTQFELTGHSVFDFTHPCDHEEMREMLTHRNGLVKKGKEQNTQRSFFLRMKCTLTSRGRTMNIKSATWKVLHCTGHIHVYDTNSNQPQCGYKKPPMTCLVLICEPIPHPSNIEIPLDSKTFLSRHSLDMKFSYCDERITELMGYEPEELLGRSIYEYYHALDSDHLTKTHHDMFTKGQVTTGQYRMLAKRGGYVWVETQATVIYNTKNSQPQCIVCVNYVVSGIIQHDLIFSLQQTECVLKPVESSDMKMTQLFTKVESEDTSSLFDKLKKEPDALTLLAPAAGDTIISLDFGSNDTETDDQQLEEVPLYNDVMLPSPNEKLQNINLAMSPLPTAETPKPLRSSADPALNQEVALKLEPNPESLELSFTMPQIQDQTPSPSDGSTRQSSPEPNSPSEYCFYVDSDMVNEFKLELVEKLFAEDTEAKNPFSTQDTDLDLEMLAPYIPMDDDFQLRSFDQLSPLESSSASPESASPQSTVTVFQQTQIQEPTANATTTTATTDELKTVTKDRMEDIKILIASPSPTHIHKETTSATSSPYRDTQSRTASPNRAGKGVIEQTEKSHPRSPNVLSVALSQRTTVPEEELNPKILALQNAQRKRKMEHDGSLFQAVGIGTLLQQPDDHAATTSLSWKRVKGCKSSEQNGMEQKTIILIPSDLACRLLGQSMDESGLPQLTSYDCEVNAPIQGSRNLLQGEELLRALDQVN
substance,measurement,setting,value
"CBP (CREB binding protein, full-length mouse CBP expressed from pRc/RSV-mCBP-HA) (from UniProt P45481 1-2441)","luciferase activity, GAL4-responsive reporter, COS7, hypoxia with CBP against hypoxia without exogenous coactivators",GAL4/HIF 71-826 (human),30 fold
same,"HRE-dependent reporter gene activity, COS7, hypoxia with CBP over the levels at normoxia",[1],15 fold
same,"HRE-dependent reporter gene activity, COS7, hypoxia, enhancement by coexpressed CBP",[1],3 fold
same,"GAL4-responsive reporter gene activity, COS7, transient expression of CBP",GAL4/HIF 526-826 (human),7 to 9 fold
same,"GAL4-responsive reporter gene activity, COS7, hypoxia, overexpression of CBP",GAL4/HIF 1-813 (human),14 fold
same,"pT81/HRE-luc reporter gene activity, COS7 coexpressing HIF-1α and Arnt, hypoxia, against hypoxia without exogenous coactivator",[2],2 to 3 fold
same,"GAL4-responsive reporter gene activity, COS7, hypoxic cells, in the presence of CBP",GAL4/HIF 531-584 (human),11 fold
same,"GAL4-responsive reporter gene activity, COS7, in the presence of CBP",GAL4/HIF 776-826 (human),29 fold
HIF-1α (wild-type human HIF-1α expressed from pCMV4/HIF-1α) (from UniProt Q16665 1-826),"GAL4-responsive reporter gene activity, COS7, normoxia, against the GAL4 fusion protein alone",GAL4/Arnt 128-774,4 fold
same,"GAL4-responsive reporter gene activity, COS7, normoxia",GAL4/Arnt 128-603,5 fold
Ref-1 (nuclear redox regulator Ref-1 expressed from pCMV5/Ref-1) (from UniProt P27695 1-318) (enzyme),"hypoxia-dependent activation of a GAL4-responsive reporter, COS7, Ref-1 coexpressed in the presence of CBP and SRC-1",GAL4/HIF 531-584 (human),12 fold
same,"hypoxia-dependent activation of a GAL4-responsive reporter, COS7, Ref-1 coexpressed in the presence of CBP and SRC-1",GAL4/HIF 776-826 (human),53 fold
TIF2 (transcriptional coactivator TIF2) (from UniProt Q15596 1-1464),"pT81/HRE-luc reporter gene activity, COS7, hypoxia over the levels at normoxia",[2],12 fold
